This note sets out measurements from US20110143394, “Methods and Means for Metabolic Engineering and Improved Product Formation by Micro-Organisms” (Universiteit Leiden, published 2011).

In data set [1] the target is T1, DasR (SCO5231) (Streptomyces coelicolor, UniProt Q9K492 SEQ:1-254).
T1 sequence: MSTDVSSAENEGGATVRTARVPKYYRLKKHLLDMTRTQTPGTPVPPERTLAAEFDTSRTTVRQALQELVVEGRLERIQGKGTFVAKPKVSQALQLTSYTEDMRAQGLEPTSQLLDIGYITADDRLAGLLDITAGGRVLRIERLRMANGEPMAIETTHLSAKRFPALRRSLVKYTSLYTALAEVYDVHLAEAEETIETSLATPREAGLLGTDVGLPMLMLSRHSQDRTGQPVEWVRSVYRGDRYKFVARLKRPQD
As to the kind of experiment: EMSA; no free probe left; 3 uM DasR, 10 nM probe, 1000-fold non-specific DNA; complex prevented by glucosamine-6-P (data not shown). The note with it: tags: His6; chain copies: 2; label: fluorescent. The protocol: (§1) Electromobility gel shift assay (EMSA). EMSAs were performed with fluorescent probes (10 nM) with an ALF express sequencer (Filee et al., 2001). Purified DasR (3 μM) and 1000-fold excess of non-specific DNA were used in the reaction mixture. Predicted cis-acting elements were taken from the promoter regions of actII-ORF4 (SCO5085; 5′-[…]-3′ (SEQ ID NO:530)), and redZ (SCO5881; 5′-[…]-3′ (SEQ ID NO:531)). Known cis-acting elements upstream of crr (SCO1390; […]-3′ (SEQ ID NO:532)), and crp (SCO3571; 5′-[…]-3′ (SEQ ID NO:533)) were used as positive and negative controls, respectively. The 16 nt dre sites are underlined.

Data set [2] has as its target T1, DasR (SCO5231). In words: EMSA; negative control. The note with it: tags: His6; chain copies: 2; label: fluorescent. The protocol: as §1
(In general: In EMSA bound probe runs differently from free probe, usually more slowly.)

B1: crr dre oligo (dsDNA)
DNA 1: CCGTGAGGAGTGTGGTCTAGACCTCTAATCGGAACA
DNA 2: TGTTCCGATTAGAGGTCTAGACCACACTCCTCACGG
In the case of B1, in the data set with DasR (SCO5231) [1], the binding result is reported as “binds”.

B2: crp cis-element oligo (dsDNA)
DNA 1: TGCGGCATCCTTGTGACAGATCACACTGTTTGGACT
DNA 2: AGTCCAAACAGTGTGATCTGTCACAAGGATGCCGCA
Take B2: in the data set with DasR (SCO5231) [2], the binding result was “no binding”.
